Results from PMC8328514, “Homo-oligomerization of the human adenosine A2A receptor is driven by the intrinsically disordered C-terminus” (eLife, 2021).

B1: A2AR-Q372ΔC (domain or fragment, human, UniProt P29274 1-372, looked up)
chain: MPIMGSSVYITVELAIAVLAILGNVLVCWAVWLNSNLQNVTNYFVVSLAAADIAVGVLAIPFAITISTGFCAACHGCLFIACFVLVLTQSSIFSLLAIAIDRYIAIRIPLRYNGLVTGTRAKGIIAICWVLSFAIGLTPMLGWNNCGQPKEGKNHSQGCGEGQVACLFEDVVPMNYMVYFNFFACVLVPLLLMLGVYLRIFLAARRQLKQMESQPLPGERARSTLQKEVHAAKSLAIIVGLFALCWLPLHIINCFTFFCPDCSHAPLWLMYLAIVLSHTNSVVNPFIYAYRIREFRQTFRKIIRSHVLRQQEPFKAAGTSARVLAAHGSDGEQVSLRLNGHPPGVWANGSAPHPERRPNGYALGLVSGGSAQ
notes: adenosine A2A receptor, human, C-terminus truncated at site Q372 (lacks residue C394)
B2: human adenosine A2A receptor, full-length wild type (receptor, UniProt P29274 1-412, looked up)
chain: MPIMGSSVYITVELAIAVLAILGNVLVCWAVWLNSNLQNVTNYFVVSLAAADIAVGVLAIPFAITISTGFCAACHGCLFIACFVLVLTQSSIFSLLAIAIDRYIAIRIPLRYNGLVTGTRAKGIIAICWVLSFAIGLTPMLGWNNCGQPKEGKNHSQGCGEGQVACLFEDVVPMNYMVYFNFFACVLVPLLLMLGVYLRIFLAARRQLKQMESQPLPGERARSTLQKEVHAAKSLAIIVGLFALCWLPLHIINCFTFFCPDCSHAPLWLMYLAIVLSHTNSVVNPFIYAYRIREFRQTFRKIIRSHVLRQQEPFKAAGTSARVLAAHGSDGEQVSLRLNGHPPGVWANGSAPHPERRPNGYALGLVSGGSAQESQGNTGLPDVELLSHELKGVCPEPPGLDDPLAQDGAGVS
notes: adenosine A2A receptor, human, full-length wild type; also called A2AR-WT; A2AR-FL-WT

Columns and labels:
[1] = target: the molecule itself; test: SEC; consecutive rounds of SEC: a first round separates monomer from dimer/oligomer, a second round is run on the SEC-separated populations; total oligomer level relative to the monomer
[2] = target: the molecule itself; test: SDS-PAGE and western blot densitometry of SEC-separated dimer; SEC-separated dimers incubated without or with 5 mM TCEP, then SDS-PAGE and western blot; dimer band area relative to monomer band area
[3] = target: the molecule itself; test: SEC; Superdex 200 10/300 GL; ligand-active receptor in running buffer 150 mM NaCl, 50 mM sodium phosphate, 10% glycerol, 0.1% DDM, 0.1% CHAPS, 0.02% CHS, pH 8.0; 4°C; HMW oligomer and dimer peak areas (Gaussian fit) relative to the monomer peak
P29274 = test: as above

| Protein | total oligomer level (relative to monomer), SEC-separated monomer after redistribution [1] [arbitrary units] | total oligomer level (relative to monomer), initial sample [1] [arbitrary units] | dimer level (relative to monomer) with 5 mM TCEP [2] [arbitrary units] | dimer level (relative to monomer) without TCEP [2] [arbitrary units] | total oligomer level (relative to monomer) [3] [arbitrary units] | HMW oligomer + dimer level (relative to monomer) (P29274) | HMW oligomer level (relative to monomer) (P29274) |
| --- | --- | --- | --- | --- | --- | --- | --- |
| B1 | 1.4 | 1.49 | 0.22 | 0.68 |  |  |  |
| B2 | 1.6 | 2.87 | 0.51 | 1.14 | 1.37 | WT: 1.34 | ctrl: 0.88 |
